The record followed here is publication PMC12130793, “A conserved aspartate residue in [4Fe-4S]-containing HypD is required for [NiFe]-cofactor biosynthesis and for efficient interaction of the HypCD scaffold complex with HypE” (Metallomics: Integrated Biometal Science, 2025).

B1: HypD (native, untagged) (natural protein, E. coli, UniProt P24192 1-373, looked up)
chain: MRFVDEYRAPEQVMQLIEHLRERASHLSYTAERPLRIMEVCGGHTHAIFKFGLDQLLPENVEFIHGPGCPVCVLPMGRIDTCVEIASHPEVIFCTFGDAMRVPGKQGSLLQAKARGADVRIVYSPMDALKLAQENPTRKVVFFGLGFETTMPTTAITLQQAKARDVQNFYFFCQHITLIPTLRSLLEQPDNGIDAFLAPGHVSMVIGTDAYNFIASDFHRPLVVAGFEPLDLLQGVVMLVQQKIAAHSKVENQYRRVVPDAGNLLAQQAIADVFCVNGDSEWRGLGVIESSGVHLTPDYQRFDAEAHFRPAPQQVCDDPRARCGEVLTGKCKPHQCPLFGNTCNPQTAFGALMVSSEGACAAWYQYRQQESEA
notes: Carries a [4Fe-4S] cluster; also called native HypD; WT HypD; source: E. coli BL21(DE3), co-expressed with HypC-Strep (phypDC) or with HypE, HypF and HybG-Strep (phypDEF-hybG); co-purified anaerobically
B2: HypD_(D98A) (untagged) (natural protein, E. coli, UniProt P24192 1-373, looked up)
chain: B1 chain with D98A
notes: HypD of E. coli with the D98A exchange, without a tag; source: co-purified anaerobically
B3: HypC bearing a C-terminal StrepII-tag (natural protein, E. coli, UniProt P0AAM3 1-90, looked up)
chain: MCIGVPGQIRTIDGNQAKVDVCGIQRDVDLTLVGSCDENGQPRVGQWVLVHVGFAMSVINEAEARDTLDALQNMFDVEPDVGALLYGEEK
notes: HypC, hydrogenase maturation factor of E. coli; native HypC; also called HypC-Strep; Strep-tagged HypC; source: E. coli BL21(DE3) transformed with phypDC or phypD_(D98A)hypC, purified anaerobically (Strep tag); not shown: StrepII, C-terminal, kept

Assay [1] has as its target B3. Nature of the assay: native MS; anaerobically purified HypC-Strep/HypD complexes buffer-exchanged into 500 mM ammonium acetate, pH 6.8, about 10 uM; nano-ESI Q-TOF; MS/MS with collision-induced dissociation (90 V) of the +12 charge state of the heterodimer. To be noted: both partners purified.
The target of assay [2] is B1. Nature of the assay: pull-down; co-purification from BL21(DE3) cells by the StrepII tag (on HypD, HypC or HybG) under anoxic conditions; 5 ug of isolated protein on SDS-PAGE, immunoblot with anti-HypD or anti-HypE antiserum (1:1000). To be noted: partners not purified. A general note: A western blot detects proteins with antibodies after separation by electrophoresis.

In assay [3] the target is B2. The description is as above. To be noted: partners not purified.

Residue numbers refer to the chain shown, from its start. Names and notes keep the numbering of the source.

B1: the “stoichiometry N” value in assay [1] is 1 ratio HypC:HypD.

Take B2: the “stoichiometry N” value in assay [1] is 1 ratio HypC:HypD.

On to B3, for which the binding result in assay [2] and in assay [3] was “binds” each time.
